Our source for the stoichiometry N values is publication PMC9015746.

For experiment [1], the target named is Bluetongue virus core protein VP7 (in the purified BTV-1 virion) (bluetongue virus BTV-1). The experiment in a line: cryo-EM structure.
Experiment [2] concerns the target Bluetongue virus membrane penetration protein VP5 (in the purified BTV-1 virion) (bluetongue virus BTV-1). The experiment in a line: cryo-EM structure.
In experiment [3] the target is purified wild-type VP5 protein (bluetongue virus BTV-1). Put plainly: SEC.

For “Bluetongue virus core protein VP7 (in the purified BTV-1 virion) (natural protein)”, the stoichiometry N in experiment [1] came out at 3.

In experiment [2], “Bluetongue virus membrane penetration protein VP5 (in the purified BTV-1 virion) (natural protein)” yielded a stoichiometry N of 3.

On to “purified wild-type VP5 protein (natural protein)”, for which, in experiment [3], the stoichiometry N stood at 3.

As a reminder, the stoichiometry N is a count of units in the complex or per binding partner.
